# In IntAct's records for PubMed 19074269:
# B1: Basic leucine zipper transcriptional factor ATF-like 2 (Homo sapiens), Q8N1L9-1 (parent)
# chain: MHLCGGNGLLTQTDPKEQQRQLKKQKNRAAAQRSRQKHTDKADALHQQHESLEKDNLALRKEIQSLQAELAWWSRTLHVHERLCPMDCASCSAPGLLGCWDQAEGLLGPGPQGQHGCREQLELFQTPGSCYPAQPLSPGPQPHDSPSLLQCPLPSLSLGPAVVAEPPVQLSPSPLLFASHTGSSLQGSSSKLSALQPSLTAQTAPPQPLELEHPTRGKLGSSPDNPSSALGLARLQSREHKPALSAATWQGLVVDPSPHPLLAFPLLSSAQVHF
# Variants of: B1
# Conditions: with jun_human JUN
row,Variant,effect of a mutation on the interaction
1,MHLCGGNGLLTQTDPKEQQRQLKKQKNRAAAQRSRQKHTDKADALHQQHESLEKDNLAPRKEIQSLQAELAWWSRTLHVHERLCPMDCASCSAPGLLGCWDQAEGLLGPGPQGQHGCREQLELFQTPGSCYPAQPLSPGPQPHDSPSLLQCPLPSLSLGPAVVAEPPVQLSPSPLLFASHTGSSLQGSSSKLSALQPSLTAQTAPPQPLELEHPTRGKLGSSPDNPSSALGLARLQSREHKPALSAATWQGLVVDPSPHPLLAFPLLSSAQVHF [L59P],disrupting interaction
